Paper PMC8904060
pKd: −log10 of the molar value.

Key:
[1] = molecular target: FimH variant 9 (recombinant dscFimH-His6) (E. coli | not stated) (UniProt P08191); experiment: SPR; BIAcore T200; FimH variant immobilised on CM5 chip (target amount 2,000 RU); GP2 isoforms as analytes at 0.5, 2.0, 6.0, 16 and 29 uM in PBS-P+; 25 C, 30 uL/min; association 3 min, dissociation 10 min; global 1:1 Langmuir fit
[2] = molecular target: FimH variant 5 (recombinant dscFimH-His6) (E. coli | not stated) (UniProt P08191); experiment: as above

Substance	pKd [1]	koff [1]	kon [1]	pKd [2]	koff [2]	kon [2]
bovine GP2 isoform 1 (major zymogen granule membrane glycoprotein 2), recombinant secreted form (natural protein)	6.47	0.000187 s⁻¹	551 M⁻¹ s⁻¹	6.75	9.65e-05 s⁻¹	538 M⁻¹ s⁻¹
bovine GP2 isoform 2 (major zymogen granule membrane glycoprotein 2), recombinant secreted form (natural protein)	7.03	5.72e-05 s⁻¹	612 M⁻¹ s⁻¹	6.87	7.41e-05 s⁻¹	545 M⁻¹ s⁻¹
human GP2 isoform 2, recombinant (natural protein)	7.65	2.38e-05 s⁻¹	1060 M⁻¹ s⁻¹	7.01	0.000102 s⁻¹	1040 M⁻¹ s⁻¹
human GP2 isoform 4, recombinant (natural protein)	9.03	4.31e-07 s⁻¹	465 M⁻¹ s⁻¹	7.66	1.68e-05 s⁻¹	772 M⁻¹ s⁻¹
porcine GP2 isoform 1, recombinant (natural protein)	6.80	8.44e-05 s⁻¹	535 M⁻¹ s⁻¹	7.65	1.71e-05 s⁻¹	758 M⁻¹ s⁻¹
porcine GP2 isoform 2, recombinant (natural protein)	7.01	8.84e-05 s⁻¹	898 M⁻¹ s⁻¹	7.02	8.32e-05 s⁻¹	870 M⁻¹ s⁻¹
